This note sets out measurements from the nanobody polyreactivity screen of Harvey et al. (2022).

The series in a line: yeast display, Sf9 membrane polyspecificity reagent, FACS + sequencing; frameworks hold sequencing errors. The method, boiled down: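 Nanobodies from a synthetic yeast display library (Saccharomyces cerevisiae BJ5465), induced 36–48 hours with galactose, were stained 1 hour at 4 °C with 10% biotinylated, detergent-solubilized Sf9 membrane reagent, enriched on streptavidin microbeads, then FACS-sorted. Anti-HA (expression) and streptavidin (reagent binding) fluorescence set low and high (top ~1%) gates. Polyreactivity labels come from the gate of origin. Genes were colony-PCR amplified, MiSeq 2 × 250 sequenced and filtered by CDR length.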
For “QVQLVESGRGLVEAGGSLRLSCAASGSTFWAYVMGWSRQAPGKERELVAAITSSGGSTYYADSVKGRFTISRDYAKNTVYLQMNILKPEDTAVYYCAADYFYPYYGAMDYWGQGTQVTVSS”, the “polyreactivity (PSR sort gate)” value is recorded as “low polyreactivity”.
As to “QVQLVESGRGLVQAGCSLRLSCASSGFIFVFNAMGRYRQAPGKERELVAAINGGDITNYAYSVKGRFTISRDNAKNTVYIQMNSLKPEDTAVYYCAADGEDSLWSGYDYDYWGLGTQVTVSS”, the “polyreactivity (PSR sort gate)” value was “low polyreactivity”.
Consider “QVQLVESGRGLVQAGCSLRLTCAASGSIFPQYAMGWYRQAPGQERELVAAITRSGGGTHYADSVKGRFTISRDNAKNTVYLQMNSLKPEDTAVYYCAKAGYRSEFEYWGQGTQVTVSS”, for which the “polyreactivity (PSR sort gate)” value is listed as “low polyreactivity”.
Under “QVQLVESGRGLVQAGGSLRLICDASGSTFFLYGMGWYRPAPGKERELVAAITWNGGSTYYADSVKGRFTISRDNAKNTVYLQMNSLKPEDTAVYYCAADYYGYFSTPYDYWGQGTQVTVSS” stands “low polyreactivity”; under “QVQLVESGRGLVQAGGSLRLSCAASGFTFGYYAMGWYRQAPGKERELVAAITSSGGTTYYADSVKGRFTISRDNAKNTVYLQMNSLKPEDTAVYYCAAEAQYYVVDPYGYDYWGQGTQVTVSS”, “low polyreactivity”.
Consider “QVQLVESGRGLVQAGGSLRLSCAASGIIFEYYTMGWSRPAPGKERELVASITYDGDSTYYADSVKGRFTISRDNAKNTVYLQMNSLKPEDTAVYYCAAEYYYVYSSFGHFYWGQGTQVTVSS”, for which the “polyreactivity (PSR sort gate)” value is given as “low polyreactivity”.
The same measure for “QVQLVESGRGLVQAGGSLRLSCAASGITFGWYAMGWYRQPPGKATELVASISSSGSTNYADSVKGRFTNSRDNAKNTVYLQMNSLKPEDTAVYYCNKDYLLRHYYIYVIEGDYWGQGTQVTVSS”: “low polyreactivity”.
Regarding “QVQLVESGRGLVQAGGSLRLSCAASGRIFDRNAMGWYRDAPGKERELVAAIDDSVGDTSYADSVKGRFTISRDNAKNTVYLQMNSLKPEDTSVFYCNAGYADFVTYPRYYYWGQGTQVTVSS”, the “polyreactivity (PSR sort gate)” value was “low polyreactivity”.
The same measure for “QVQLVESGRGLVQAGGSLRLSCAASGRIFFRYAMGWYRQAPGKAMELVAALPKSGGSTYADSVKGRFTISRDNAKTTVSLQMNSLKPEDTAVDDCATETTHYRDSGYIVKYRSEYWGQGTQVTVSS”: “low polyreactivity”; for “QVQLVESGRGLVQAGGSLRLSCAASGRIFKAYAMGWYRQAPGKERELVAAISRSGGRTFYADSVKGRFTISRDNAKNTVYLQMNSLKPEDTAVYYCAVDVSPDSEYYYWGQGTQVTVSS”: “high polyreactivity”.
Take “QVQLVESGRGLVQAGGSLRLSCAASGRIFKGYAMGWYRQAPGKERELVAAITTSGGGTYSADSVKGRFTFSRDNAKNTVYLQMNSLKPEDPAVYYCAKTLGSQNYDFDYWGQGTQVTVSS”: the “polyreactivity (PSR sort gate)” value is listed as “low polyreactivity”.
The same measure for “QVQLVESGRGLVQAGGSLRLSCAASGRIFTTDVMGWDRQAPGKERELFAAISARGSTYYADYVKWRFTISRDNAKNTVYLHMNSLKPEDTAVYYFAKKGWSSHERAWYIYDYWGQGTQVTVSS”: “low polyreactivity”.
Take “QVQLVESGRGLVQAGGSLRLSCAASGRTFDGYAMGWYRQAPGKERELVAAIDYDGVSTYYADSVKGRFTISRDNAKNTVYLPMHSLKPEDTAVYFCAVDATDDWWLDYWGQGTQVSVSS”: the “polyreactivity (PSR sort gate)” value is “low polyreactivity”.
For “QVQLVESGRGLVQAGGSLRLSCAASGRTLRIYAMGWYRQAPGKERELVAAITSSGRTNYADSVKGRFTISRDNAKNTVYLQMNSLKPEDTAVYYCAAVTPAVNYFRAASGYYYWGQGTQVTVSS”, the “polyreactivity (PSR sort gate)” value is “low polyreactivity”.
Consider “QVQLVESGRGLVQAGGSLRLSCAASGSIFDKYAMGWDRQAPGKEREMVAAISYSGGRTYYADSVKGRFTISRDNAKNTVYLQMNCLNPEDTAVYYCNAVGSVITDFGYWGQGTQVTVSS”, for which the “polyreactivity (PSR sort gate)” value was “low polyreactivity”.
Under “QVQLVESGRGLVQAGGSLRLSCAASGSIFIANPMGWYRQAPGKQREFVADITLNGGSTYYADSVKGRFTISRDNAKNTVYLEMNRLNPEDTAVYYCAADWVWVAPQYWIVEYDYWGQGTQVTVSS” stands “low polyreactivity”.
The same measure for “QVQLVESGRGLVQAGGSLRLSCAASGSIFRYNAMGWYRQAPGKERELVAAITRRGTSTYYADSVKGRFTISRDNAKNTVYLQKNSLKPEDTAVYYCAARYLYGVPVGGHGYWGQGTQVSVSS”: “high polyreactivity”; for “QVQLVESGRGLVQAGGSLRLSCAASGSIFTPNVMGWYIQAPGKERELVAAISQSGGSTFYADSVKGRFTISRDNAKNTVYLQLNSLKPEDTAVYYCATEYDGPVYDLDYDYWGQGTLVTVSS”: “low polyreactivity”; for “QVQLVESGRGLVQAGGSLRLSCAASGSTFDANAMGWYRQAPGKERELVAAISRSGGNTYYADSVKGRFTISRDNAKNTVYLQMNSLKPEDTAVYYCAADFRNAYYDRLDYWGQGTHVTVSS”: “low polyreactivity”.
Under “QVQLVESGRGLVQAGGSLRLSCAASGSTFGGYAMGWYRQAPGKERELVAAISGSGVRTYYADSVKGRFTISRDNAKNTVYLQMNSLKPEDTAVYYCAKRVRYPGDRYYYWGQGTQVTLSS” stands “high polyreactivity”; under “QVQLVESGRGLVQAGGSLRLSCAASGSTFGRYVMGWYRQAPGKERELVAAISKNAGSTYYADSVKGRFTISRDNAKNTVYLQMNSLKPEDTAVYYCNRERRYRNDYWGQGTQVTVSS”, “high polyreactivity”.
In the case of “QVQLVESGRGLVQAGGSLRLSCAASGSTFNRNAMGWYRQAPGKERELVAAITIRGGSTSYADSVKGRFTISRDNAKNTVYLQMNSLKPEDTAVYYCNRQSRNAGGYYWGQGTHVTVSS”, the “polyreactivity (PSR sort gate)” value is given as “low polyreactivity”.
On to “QVQLVESGRGLVQAGGSLRLSCAASGSTFPPSAMGWYRQAPGKERELVAAIDVSGGTTFYADSVKGRFTISRDNAKNTVYLQMNSLKPEDTAVYYCAIGSVSARFEYWGQGTQVTVSS”, for which the “polyreactivity (PSR sort gate)” value is “low polyreactivity”.
In the case of “QVQLVESGRGLVQAGGSLRLSCAASGSTFRGNAMGWYRQAPGKERELVAAISVTGGSTYYADSVKVRFTISRDNAKNTVYLQMNSLKPEDTAVYYCADRVQRGQYSFVRDYYYWGQGTQVTVSS”, the “polyreactivity (PSR sort gate)” value is reported as “high polyreactivity”.
For the sequence “QVQLVESGRGLVQAGGSLRLSCAASGSTFRYYAMGWYRQAPGKERELVAAISYSGGSTYYADSVKGRFTISRDNAKNTVYLQMNSLKPEDTAVYYCASSWYSIGKRYYYWGQGTQVTVSS”, the “polyreactivity (PSR sort gate)” value is given as “high polyreactivity”.
Under “QVQLVESGRGLVQAGGSLRLSCAASGSTFVRNAMGWYRQAPGKERELDAAITSSGGSTYYADSVKGRFTISRDYAKNTVYVQMNRLKPEDTAVYYCGKRRYYRYDYWGLGTQVTVSS” stands “low polyreactivity”; under “QVQLVESGRGLVQAGGSLRLSCAASGSTISFYAMGWYRQAPGKERELVAAISFRGGRTYYADSVKGRFTISRDNAKNTVYLQMNSLKPEDTAVYYCNAERYYRYWDKQEDYWGQGTHVTVSS”, “high polyreactivity”.
Under “QVQLVESGRGLVQAGGSLRLSCAASGTTCLYYTMGWYRQAPGKERELVASISYSGGRTYYADSVKGRFTISRDNAKNTVYLQMNSLKPEDTAVYYCNKKRYYDGYDYWGQGTQVTVSS” stands “high polyreactivity”; under “QVQLVESGRGLVQAGGSLRLSCAASVGTFDKNAMGCYRQAPGNERELVAALTYGGGSTYYADSVKGRFTISRDNAKNTVYLQMNSLKPEDTAVYYCAVAIITYPYATGSSYDYWGQGTQVTVSS”, “low polyreactivity”.
Consider “QVQLVESGRGLVQAGGSLRLSCAPSGIIFTSYAMGWYRQAPGKESEFVAAITRSGSRTYYADSVKGRFTISRDNAKNTVYLQMNRLKPEDTAVYYCAARTFHDSSDSYAGGYWGQGTQVTVSS”, for which the “polyreactivity (PSR sort gate)” value is on record as “low polyreactivity”.
For the sequence “QVQLVESGRGLVQAGGSLRLSCAPSGLIFRYYAMGWYRQAPGKEREFVAAISGRGASTYYADSVKGRFTISRDNAKNTVYLQMNSLKPEDTAVYYCATYFPSAVVAFHMDYWGQGTQVTVST”, the “polyreactivity (PSR sort gate)” value was “high polyreactivity”.
For the sequence “QVQLVESGRGLVQAGGSLRLSCASSGSTCVRNVMGWYRQAPGKERELVAAISRRGGGTYYADSVKGRFTISRDNAKNTVYLQMNSLKPEDTAVYYCATGSIAAGHYAYNYWGQGTQVTVSS”, the “polyreactivity (PSR sort gate)” value is given as “high polyreactivity”.
Consider “QVQLVESGRGLVQAGGTLRISFADSGRIFGNYAMGRYRQAPGKERELVAAIPWRGGRTRYADSVKGRFTISRDNAKNTVYLQMNSLKPEDTAVYYCAAPYTSSGPDDYWGQGTQVTVSS”, for which the “polyreactivity (PSR sort gate)” value is “high polyreactivity”.
“QVQLVESGRGLVQAGGTLRLSCAASGSTFGSYAMGWYRQAPGKEREFVATISRSGGRTYYAASVKGRFTISRDNAKNTVYFQMNSLKPEDTAVYYCATDRRYWIGYDYWGPGTQVTVSS”: the “polyreactivity (PSR sort gate)” value is “high polyreactivity”.
The same measure for “QVQLVESGRGLVQAGVSLRLSCAASGPTFRGNVMGRYRKAPGKERELVAAINWTGSSTYYADSVKGGFTISRDNAKNTVYLQMNSLKPEDTAVDYCATRIGPHGGGLPRDYWGQGTQVTVSS”: “low polyreactivity”; for “QVQLVESGRGLVQTGGSLRLSCAASGLVNAMGWYRQAPWKERELVAAISSGGSTYYADSVKGRFTISRDNAKNTVYLQMNSLKPEDTAVYYCNAVYFRHYGYGYWGQGTQVTVSS”: “low polyreactivity”; for “QVQLVESGRRLVQAGGSLRLSCAASGRIFGAYARGWSRQAPGKEREMVAAITSRGGNTYYADSVKGRFTISRDNAKNTVYLQMNSLKPEDTAVYYCRYDIWVWWSGAYDYWGQGTQVTVSS”: “low polyreactivity”.
As for “QVQLVESGTGLVQAGGSLRLSCAASGSIFAYYAMGWYRHAPGKERELVAAISSRGGNTYYADSVKGRFTISRDNAKNNVYLQMNSLKPEDTAVYYCAADYQYSYGEYDYWGHGTQVTVSS”, the “polyreactivity (PSR sort gate)” value was “high polyreactivity”.
Under “QVQLVESGVCLVQAGGSLRLSCAASGIIISTYAMGWYRQAPGKERELVAAITWGGTRTNYADSVKGRFTISRDNAKNTVYLQMKSLKPEDTAVYYCAASYVRDSYTHGSWGQGTQVTVSS” stands “low polyreactivity”; under “QVQLVESGVGIVQAGGSLRLICAASGSTFTIYAMGWYRQAPGKERELVAAITWNGGSTYYADSVKGRFTISRDNAKKTVYLQMNSLKPEDTAVYYCAAKFRYQYVRVAREYYYWGQGTQVTVSS”, “high polyreactivity”.
Turning to “QVQLVESGVGIVQAGGSLRLSCAASGRIFFTYAMVWYRQAPGKERELVASITGSGGSTYYADSVKGRFTISRDNAKNTVYLQMNSLKPEDTAVYYCAAALFRRQLYRKFYYWGQGTQVSVSS”, the “polyreactivity (PSR sort gate)” value was “low polyreactivity”.
